Reference: article PMC6321028, “2′-Fluoro-Pyrimidine-Modified RNA Aptamers Specific for Lipopolysaccharide Binding Protein (LBP)”

Legend:
EF-Tu = EF-Tu (Thermus thermophilus, UniProt Q5SHN6 2-406); assay: nitrocellulose filter binding; 140 mM NaCl, 2.7 mM KCl, 10 mM Na2HPO4, 1.76 mM KH2PO4, 2 mM MgCl2; pH not stated; 37 °C, 1 h; RNA refolded; mLBP 15-1000 nM; conditions: label: 32P (internal or 5'); three-helix junction, helices P1-P4
[1] = biological target: T1, murine lipopolysaccharide binding protein (mLBP-His6) (Mus musculus, UniProt Q61805 25-481); assay: nitrocellulose filter binding; 2 mM MgCl2; 140 mM NaCl, 2.7 mM KCl, 10 mM Na2HPO4, 1.76 mM KH2PO4, 2 mM MgCl2; pH not stated; 37 °C, 1 h; RNA refolded; mLBP 15-1000 nM; conditions: protein: recombinant; tags: C-terminal His6; label: 32P (internal or 5'); three-helix junction, helices P1-P4
T1 sequence: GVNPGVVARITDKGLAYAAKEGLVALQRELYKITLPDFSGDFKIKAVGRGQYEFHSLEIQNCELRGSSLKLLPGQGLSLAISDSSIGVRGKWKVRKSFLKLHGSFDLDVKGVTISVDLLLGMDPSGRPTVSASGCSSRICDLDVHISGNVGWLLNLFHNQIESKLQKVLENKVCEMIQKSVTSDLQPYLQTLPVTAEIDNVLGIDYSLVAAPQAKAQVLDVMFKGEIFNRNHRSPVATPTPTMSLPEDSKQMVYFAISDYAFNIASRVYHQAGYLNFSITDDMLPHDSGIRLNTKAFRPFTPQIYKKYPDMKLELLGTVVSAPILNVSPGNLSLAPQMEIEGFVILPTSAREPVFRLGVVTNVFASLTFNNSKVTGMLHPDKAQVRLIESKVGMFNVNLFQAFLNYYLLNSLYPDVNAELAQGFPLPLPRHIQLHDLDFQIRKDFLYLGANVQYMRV

[2] = biological target: T1, murine lipopolysaccharide binding …; assay: 140 mM NaCl, 2.7 mM KCl, 10 mM Na2HPO4, 1.76 mM KH2PO4, 2 mM MgCl2; pH not stated; 37 °C, 1 h; RNA refolded; mLBP 15-1000 nM; conditions: protein: recombinant; tags: C-terminal His6; three-helix junction
[3] = biological target: T1, murine lipopolysaccharide binding …; assay: nitrocellulose filter binding; affinity comparable to A011, among the best binders (screen range about 200-800 nM); 140 mM NaCl, 2.7 mM KCl, 10 mM Na2HPO4, 1.76 mM KH2PO4, 2 mM MgCl2; pH not stated; 37 °C, 1 h; RNA refolded; mLBP 15-1000 nM; conditions: protein: recombinant; tags: C-terminal His6; label: 32P; three-helix junction (predicted)
[4] = biological target: T1, murine lipopolysaccharide binding …; assay: boundary experiment, nitrocellulose filter retention; 200 or 400 nM mLBP; no apparent effect on affinity; 140 mM NaCl, 2.7 mM KCl, 10 mM Na2HPO4, 1.76 mM KH2PO4, 2 mM MgCl2; pH not stated; 37 °C, 1 h; RNA refolded; mLBP 15-1000 nM; conditions: protein: recombinant; tags: C-terminal His6; label: 5' 32P; P1 pairs U6-G11 with C65-A70

Sequence of EF-Tu (Q5SHN6 2-406): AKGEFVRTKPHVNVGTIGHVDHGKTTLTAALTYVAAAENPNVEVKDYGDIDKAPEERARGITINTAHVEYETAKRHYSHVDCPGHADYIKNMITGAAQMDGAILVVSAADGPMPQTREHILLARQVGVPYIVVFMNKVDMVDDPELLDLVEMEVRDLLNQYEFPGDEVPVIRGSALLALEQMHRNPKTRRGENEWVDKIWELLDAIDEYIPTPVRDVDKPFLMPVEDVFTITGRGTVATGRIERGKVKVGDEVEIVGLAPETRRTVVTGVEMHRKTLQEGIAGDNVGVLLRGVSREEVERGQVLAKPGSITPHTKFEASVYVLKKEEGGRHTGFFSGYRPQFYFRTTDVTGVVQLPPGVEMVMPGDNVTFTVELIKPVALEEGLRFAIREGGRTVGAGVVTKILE

B1: A011 (XNA)
RNA: GGGAAUUCGAGCUCGGUACCGGACUGUGGAUUGUUCUGGGUGCCGCUUCUCCGAAUAUCGGACUCUCGAACUCCUGGGGACUGCAGGCAUGCAAGCUUGG
modifications: 2'-fluoro C and U (all pyrimidines); A and G ribo
- binding result (EF-Tu): no binding
- Kd [1]: 0.267 µM

B2: A011 del 76-100 (XNA)
RNA: GGGAAUUCGAGCUCGGUACCGGACUGUGGAUUGUUCUGGGUGCCGCUUCUCCGAAUAUCGGACUCUCGAACUCCU
modifications: 2'-fluoro C and U
- binding signal [2]: ~5 fold reduction in affinity vs A011

B3: A036 (XNA)
RNA: GGGAAUUCGAGCUCGGUACCGAUAUACGGUGCCGCUUCUCUAACCGGUGGUCAUGCGGUUGGACGCUCGAACAGACUACUGCAGGCAUGCAAGCUUGG
modifications: 2'-fluoro C and U
- binding result [3]: binds

B4: A011 1-70 (3' boundary fragment) (XNA)
RNA: GGGAAUUCGAGCUCGGUACCGGACUGUGGAUUGUUCUGGGUGCCGCUUCUCCGAAUAUCGGACUCUCGAA
modifications: 2'-fluoro C and U
- binding result [4]: binds
